2 proteins from publication doi:10.1101/2025.01.14.632894 (bioRxiv, 2025) can be followed below.

By stoichiometry N is commonly meant a count of units in the complex or per binding partner.

The data set “mass photometry” concerns the molecule itself. Briefly: mass photometry.
The data set “SAXS” concerns the molecule itself. Briefly: SAXS.

B1: CCDC6-RET fusion product (CCDC6 residues 1-101 fused to RET residues 713-1072), wild type, apo (un-phosphorylated) state (enzyme, human, UniProt Q16204 1-101, looked up)
chain: MADSASESDTDGAGGNSSSSAAMQSSCSSTSGGGGGGGGGGGGGKSGGIVISPFRLEELTNRLASLQQENKVLKIELETYKLKCKALQEENRDLRKASVTIEDPKWEFPRKNLVLGKTLGEGEFGKVVKATAFHLKGRAGYTTVAVKMLKENASPSELRDLLSEFNVLKQVNHPHVIKLYGACSQDGPLLLIVEYAKYGSLRGFLRESRKVGPGYLGSGGSRNSSSLDHPDERALTMGDLISFAWQISQGMQYLAEMKLVHRDLAARNILVAEGRKMKISDFGLSRDVYEEDSYVKRSQGRIPVKWMAIESLFDHIYTTQSDVWSFGVLLWEIVTLGGNPYPGIPPERLFNLLKTGHRMERPDNCSEEMYRLMLQCWKQEPDKRPVFADISKDLEKMMVKRRDYLDLAASTPSDSLIYDDGLSEEETPLVDCNNAPLPRALPSTWIENKLYGRISHAFTRF
modifications: activation loop Tyr 900 and c-terminal Ser 1034 showed high levels of phosphorylation in the basal state
Consider B1, for which the “stoichiometry N” value in “mass photometry” came out at 2.

B2: CCDC6-RET lacking the c-terminal segment of RET (CCDC6 1-101 fused to RET aa 713-1013) (enzyme, human, UniProt Q16204 1-101, looked up)
chain: MADSASESDTDGAGGNSSSSAAMQSSCSSTSGGGGGGGGGGGGGKSGGIVISPFRLEELTNRLASLQQENKVLKIELETYKLKCKALQEENRDLRKASVTIEDPKWEFPRKNLVLGKTLGEGEFGKVVKATAFHLKGRAGYTTVAVKMLKENASPSELRDLLSEFNVLKQVNHPHVIKLYGACSQDGPLLLIVEYAKYGSLRGFLRESRKVGPGYLGSGGSRNSSSLDHPDERALTMGDLISFAWQISQGMQYLAEMKLVHRDLAARNILVAEGRKMKISDFGLSRDVYEEDSYVKRSQGRIPVKWMAIESLFDHIYTTQSDVWSFGVLLWEIVTLGGNPYPGIPPERLFNLLKTGHRMERPDNCSEEMYRLMLQCWKQEPDKRPVFADISKDLEKMMVKRR
For B2, the binding result in the data set “SAXS” is listed as “binds”.
